One substance from publication PMC11915586 can be followed below.

Experiment [1] has as its target Hsp90 from Saccharomyces cerevisiae (Hsp82) with D61C, CpK at position 452 and a C-terminal coiled-coil motif, labelled with Atto 550 / Atto 647N and DNA oligonucleotide (Saccharomyces cerevisiae) (UniProt P02829). As to the kind of experiment: optical tweezers (single-molecule force spectroscopy); dye-labeled Hsp90 dimer tethered at position 452 by 2.5 kbp DNA handles; constant velocity 500 nm s^-1; 2 mM AMP-PNP, incubated 30 min at 21°C; 26 traces.

The target is the same in experiment [2]. Kind of experiment: optical tweezers (single-molecule force spectroscopy); dye-labeled Hsp90 dimer tethered at position 452 of both monomers between two beads by 0.5 kbp DNA handles; constant velocity 500 nm s^-1; no nucleotide; 172 unfolding traces.
Experiment [3] shares this target. As to the kind of experiment: optical tweezers (single-molecule force spectroscopy); dye-labeled Hsp90 dimer tethered at position 452 of both monomers between two beads by 2.5 kbp DNA handles; constant velocity 500 nm s^-1; no AMP-PNP; 147 unfolding traces.

With “Hsp90 from Saccharomyces cerevisiae (Hsp82) with D61C, CpK at position 452 and a C-terminal coiled-coil motif, labelled with Atto 550 / Atto 647N and DNA oligonucleotide (from UniProt P02829 1-709) (natural protein)”, the dissociation force, C-terminal dimer dissociation was found to be 10.7 pN in experiment [1], 16.8 pN in experiment [2] and 16.5 pN in experiment [3]. The substance further returned a force of N-terminal dimer opening in experiment [1] of 8.8 pN.
